The target of the assay is ADAMTS-5 (UniProt Q9UNA0). The assay is described as follows: cell-based or functional assay.
Sequence of UniProt Q9UNA0 (Q9UNA0 262-622 limits assumed): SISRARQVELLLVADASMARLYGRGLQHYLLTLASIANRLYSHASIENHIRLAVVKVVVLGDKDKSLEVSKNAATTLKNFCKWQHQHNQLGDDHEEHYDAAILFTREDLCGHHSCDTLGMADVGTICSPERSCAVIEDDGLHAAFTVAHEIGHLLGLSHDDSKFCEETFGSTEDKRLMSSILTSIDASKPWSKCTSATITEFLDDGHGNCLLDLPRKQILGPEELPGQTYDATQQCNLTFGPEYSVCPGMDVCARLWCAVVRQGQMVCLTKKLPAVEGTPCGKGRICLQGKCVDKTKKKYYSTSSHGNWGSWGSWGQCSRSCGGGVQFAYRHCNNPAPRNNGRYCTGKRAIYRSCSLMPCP

Substance “purified A2M (alpha-2-macroglobulin) (from UniProt P01023 24-1474)” gave an IC50 for inhibiting 500 ng/ml of ADAMTS-5 (bovine cartilage explants, 2 days, 3-fold serial dilution of A2M) of 7 mg/L and a Maximum inhibition (bovine cartilage explants treated with protease, 2 days) of 90%.

For the origin of these results see patent publication US20170246372A1.
